Tests used:
[1] = biological target: T1, FLRT3 (antigen of the binning assay of Table 2) (Homo sapiens (Human), UniProt Q9NZU0 29-528, limits assumed); test: antibody binning matrix (Table 2); competitor: 14D3
T1 construct: the whole entry for FLRT3 is named
T1 sequence: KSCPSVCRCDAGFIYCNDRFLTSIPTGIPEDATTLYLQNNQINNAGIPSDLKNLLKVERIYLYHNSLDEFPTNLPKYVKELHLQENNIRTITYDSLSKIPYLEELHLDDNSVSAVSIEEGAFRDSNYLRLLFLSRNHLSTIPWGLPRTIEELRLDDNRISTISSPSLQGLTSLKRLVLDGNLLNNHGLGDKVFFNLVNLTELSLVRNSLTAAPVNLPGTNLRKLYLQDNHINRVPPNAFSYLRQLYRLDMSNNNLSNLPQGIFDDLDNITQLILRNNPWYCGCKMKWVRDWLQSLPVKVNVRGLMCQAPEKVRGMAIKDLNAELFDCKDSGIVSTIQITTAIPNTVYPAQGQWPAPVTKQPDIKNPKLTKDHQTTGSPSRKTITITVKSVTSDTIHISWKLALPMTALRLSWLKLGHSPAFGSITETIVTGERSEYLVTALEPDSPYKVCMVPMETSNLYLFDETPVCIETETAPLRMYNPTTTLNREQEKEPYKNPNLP

[2] = biological target: T2, FLRT3-His monomeric fusion protein (Homo sapiens (Human), UniProt Q9NZU0 29-528); test: kinetic affinity measurement with FLRT3-His monomer (Table 1)
T2 construct: also called FLRT3 monomer; not shown: His tag
T2 sequence: T1 sequence

[3] = biological target: T3, human FLRT3 on cells (human, UniProt Q9NZU0 29-649); test: flow cytometry on 293T cells transfected with human FLRT3, normalised MFI, non-linear fit
T3 construct: also called hFLRT3
T3 sequence: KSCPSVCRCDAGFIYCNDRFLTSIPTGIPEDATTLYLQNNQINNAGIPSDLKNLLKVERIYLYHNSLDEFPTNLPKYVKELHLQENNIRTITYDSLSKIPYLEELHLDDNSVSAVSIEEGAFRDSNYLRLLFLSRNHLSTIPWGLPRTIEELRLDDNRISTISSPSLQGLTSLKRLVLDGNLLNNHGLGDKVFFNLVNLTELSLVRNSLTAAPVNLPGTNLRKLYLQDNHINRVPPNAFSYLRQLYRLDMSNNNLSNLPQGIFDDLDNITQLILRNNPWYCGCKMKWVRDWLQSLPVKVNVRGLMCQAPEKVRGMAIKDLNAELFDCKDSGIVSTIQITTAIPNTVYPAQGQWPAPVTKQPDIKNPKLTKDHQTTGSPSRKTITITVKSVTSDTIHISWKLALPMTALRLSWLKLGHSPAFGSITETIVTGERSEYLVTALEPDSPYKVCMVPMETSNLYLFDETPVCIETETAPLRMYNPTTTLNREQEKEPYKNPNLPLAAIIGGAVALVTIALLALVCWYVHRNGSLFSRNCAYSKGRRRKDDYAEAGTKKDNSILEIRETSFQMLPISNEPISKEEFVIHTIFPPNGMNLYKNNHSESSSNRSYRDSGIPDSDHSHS
Description: (§1) MFI values of each group were normalized within that group- i.e. largest value 100% and smallest value 0%.

[4] = biological target: T1, FLRT3 (antigen of the binning assay of …); test: antibody binning matrix (Table 2); competitor: 15G11
[5] = biological target: T1, FLRT3 (antigen of the binning assay of …); test: antibody binning matrix (Table 2); row '1X Kinetic' (no first antibody), column antibody taken as binder
[6] = biological target: T3, human FLRT3 on cells; test: flow cytometry on 293T cells transfected with human FLRT3, normalised MFI, non-linear fit; Exp 2
Description: as §1

[7] = biological target: T3, human FLRT3 on cells; test: flow cytometry on A549 cells (endogenous hFLRT3), normalised MFI, non-linear fit
Method: (§2) Increasing concentrations of FLRT3 antibodies bound to A549 cells that express endogenous hFLRT3 (FIG. 19). Binding curves for the top three antibodies were performed (FIG. 20A). MFI values of each group were normalized within that group- i.e. largest value 100% and smallest value 0% (FIG. 20A). EC50 values were calculated based on non-linear regression fit (FIG. 20B).

[8] = biological target: T3, human FLRT3 on cells; test: as above; remark: listed apart in the source
Method: as §2

[9] = biological target: T1, FLRT3 (antigen of the binning assay of …); test: antibody binning matrix (Table 2); competitor: 2F7
[10] = biological target: T4, FLRT3-Fc (Homo sapiens (Human), UniProt Q9NZU0 29-528, biotin label in Example 8 (site not stated)); test: competition ELISA: FLRT3-Fc biotin binding to coated Unc5B-Fc with titrated antibody
T4 construct: also called FLRT3-Fc biotin; soluble FLRT3; not shown: Fc part
T4 sequence: T1 sequence
Method: The FLRT3 antibodies were tested for their ability to block FLRT3-Unc5B interaction in ELISA assays (FIG. 14A). The binding of FLRT3-Fc biotin to Unc5B-Fc was confirmed in the absence of blocking mAbs (FIG. 14B).

[11] = biological target: T1, FLRT3 (antigen of the binning assay of …); test: antibody binning matrix (Table 2); competitor: 5C2
[12] = biological target: T3, human FLRT3 on cells; test: flow cytometry on 293T cells transfected with human FLRT3, normalised MFI, non-linear fit; Exp 1
Description: as §1

[13] = biological target: T1, FLRT3 (antigen of the binning assay of …); test: antibody binning matrix (Table 2); competitor: 1H5
[14] = biological target: T1, FLRT3 (antigen of the binning assay of …); test: antibody binning matrix (Table 2); competitor: 14B7

B1: 14B7 (antibody, V domains shown)
VH: QVQLQQSGPELVKPGASVNISCKASGYAFGNSWMNWVKQRPGKGLEWIGWIYPGDGNANYNGKFKGKATLTADKSSSTAYMQLSSLTSEDSAVYFCARALYDYDGWFAYWGQGTLVTVSA
VL: DIQMNQSPSSLSASLGDTITIACRASQNIDIWLSWYQQKPGSIPKLLIYKASNLHTGVPSRFSGSGSGTDFTLTISSLQPEDIATYYCLQGQSFPFTFGSGTKLEIK
notes: Variable domains only; also called FLRT3 mAb 14B7; antibody 14B7
B1 was tested, and the “binning response (no name or unit printed)” value [1] was 0.621, the Kd [2] was 0.349 nM and the koff [2] was 0.000138 s⁻¹. The kon [2] was 436000 M⁻¹ s⁻¹, the EC50 [3] was less than 1.5 nM and the “binning response (no name or unit printed)” value [4] was 1.07. For the same binder, the “binning response (no name or unit printed)” value [5] was 1.73, the EC50 [6] was 1.35 nM and the EC50 [7] was less than 1 nM. The EC50 [8] was 0.29 nM, the “binning response (no name or unit printed)” value [9] was 0.771 and the “IC50 (read off the curve)” value [10] was roughly 2 µg/mL. For the same binder, the “binning response (no name or unit printed)” value [11] was 0.0014, the EC50 [12] was 1.41 nM and the “binning response (no name or unit printed)” value [13] was 0.671. The “binning response (no name or unit printed)” value [14] was 0.0294.

From patent US20230357384A1 (NEXTCURE, published 2023)
